Test results reported in PMC8191759.

Key:
Experiment in all cases: cross-linking
NSP8 M90A (SARS-CoV-2) = target: NSP8 M90A (SARS-CoV-2)
NSP8 F92A (SARS-CoV-2) = target: NSP8 F92A (SARS-CoV-2)
NSP8 M94A (SARS-CoV-2) = target: NSP8 M94A (SARS-CoV-2)

Substance NSP8 M90A (natural protein) has a stoichiometry N (NSP8 M90A (SARS-CoV-2)) of 2.

Work on NSP8 F92A (natural protein) yielded a stoichiometry N (NSP8 F92A (SARS-CoV-2)) of 2.

NSP8 M94A (natural protein) was tested, and the stoichiometry N (NSP8 M94A (SARS-CoV-2)) was 2.
